# Assay results as given in patent US20050026234A1.
# Assays:
# [1] = target: modified kemptide LRRASLP of C4kY2.1, phosphorylated by PKA at serine 475; assay: cell-based or functional assay
# [2] = target: PKC substrate sequence … of CKAR, phosphorylated by PKC at the phosphoacceptor threonine; assay: cell-based or functional assay
"FRET efficiency of phosphorylated C4kY2.1, calculated after trypsin treatment (nonphosphorylated: 30%) [1]","change in the emission ratio 535 nm/480 nm in cells pretreated with 10 µM H-89, then 1 mM dbcAMP [1]",emission ratio of 526 nm and 476 nm of the purified PKA-phosphorylated chimera before dephosphorylation by PP1 (1.14 after) [1],increase in the 535 nm/480 nm ratio in COS-7 cells treated with FsK and with dbcAMP [1],ratio of the emission at 526 nm and 476 nm of purified C4kY2.1 after phosphorylation by PKA catalytic subunit (1.09 before) [1],"absolute amount of FRET of purified CKAR after phosphorylation by PKC βII (38% before), estimated from emission spectra [2]",Substance
20%,46%,1.39,5%,1.42,,"14-3-3τ (1-232), the phosphoaminoacid binding domain of the chimeric PKA reporter protein C4kY2.1"
,,,,,34%,"FHA2 phosphothreonine binding domain from the yeast checkpoint protein rad53p, as the binding domain of CKAR (from UniProt P22216 601-681)"
